{
  "source": "patent US8106168B2",
  "about": "“Metalloproteinase binding proteins” (Dyax Corp., priority 2005, dated 2012)",
  "molecules": {"B1": {"name": "M0038-F01: human antibody (Fab, IgG) that binds and inhibits MMP-14; HC SEQ ID NO: 156, LC SEQ ID NO: 157 (antibody, V domains shown)", "VH": "EVQLLESGGGLVQPGGSLRLSCAASGFTFSLYSMNWVRQAPGKGLEWVSSIYSSGGSTLYADSVKGRFTISRDNSKNTLYLQMNSLRAEDTAVYYCARGRAFDIWGQGTMVTVSS", "VL": "QDIQMTQSPSSLSAFVGDKVTITCRASQSVGTYLNWYQQKAGKAPELLIYATSNLRSGVPSRFSGSGSGTDFTLTINTLQPEDFATYYCQQSYSIPRFTFGPGTKVDIK", "modifications": "Synthetically generated peptide"}},
  "key": {"[1]": {"tested_on": "activation of pro-MMP-2 by MMP-14 in PMA-activated HT-1080 cells", "assay": "Gelatin zymogram, pro-MMP-2 activation in HT-1080 cells", "assay_type": "cell-based, human", "settings": "gelatin zymography of conditioned media after 3 days; antibodies 10 μg/ml, GM6001 10 μM", "protocol": "The ability of anti-MMP-14 IgGs to inhibit the activation of pro-MMP-2 by MMP-14 was examined by gelatin zymogram experiments performed with PMA-activated HT-1080 cells. M0033-H07 and M0038-F01 were tested for their ability to inhibit MMP-14 in this assay. HT1080 cells (well-known to express MMP-14 and MMP-2) were seeded at 5×10^5 cells/well at Day 0. […] HT-1080 cells cultured in the presence of 20 ng/ml of PMA were used as a positive control.\nAfter 3 days of incubation, conditioned media were collected and gelatinolytic activities were analyzed by gelatin zymography as described previously (Maquoi et al, J Biol Chem 2000; 275:11368-78). When HT-1080 cells are activated with a phorbol ester, pro-MMP-2 is activated into MMP-2 (lane 1)."}, "MDA-MB-435 GFP tumors": {"tested_on": "MDA-MB-435 GFP tumors", "assay": "MDA-MB-435 GFP orthotopic breast tumor growth", "assay_type": "in vivo, mouse", "settings": "for Tumor Mass (±SD): excised primary tumor", "text": "Fragments of MDA-MB-435 GFP (MDA-MB-435 cells expressing green fluorescent protein) tumors were transplanted by surgical orthotopic implantation (SOI) into the right second mammary gland. Treatment was started on day 15 after SOI when the volume of primary tumors reached about 85 mm^3.\nMice were sacrificed at day 61 after the start of the treatment and tumors (primary and metastases) were identified by fluorescent imaging. Additionally, primary tumors were excised and weighed. […] However, M0038-F01 was not effective in reducing lymph node or lung metastases in this experiment."}, "PC3 prostate tumors": {"tested_on": "PC3 prostate tumors", "assay": "PC3 prostate tumor growth", "assay_type": "in vivo, mouse", "settings": "M0038-F01 10, 1 or 0.1 mg/kg Q2d IP; taxotere 10 mg/kg weekly IP; A2 10 mg/kg Q2d", "text": "PC3 prostate cancer cells were implanted into male nude mice by subcutaneous injection."}, "MDA-MB-231-GFP tumors": {"tested_on": "MDA-MB-231-GFP tumors", "assay": "MDA-MB-231-GFP orthotopic breast tumor growth and metastasis", "description": "Human breast cancer cells MDA-MB-231 cells transfected with green fluorescent protein (MDA-MB-231-GFP) were inoculated into the mammary fat pad of female BALB/c nu/nu mice with Matrigel. Animals were monitored for tumor growth, and at week 4-5 post tumor cell inoculation, animals with tumors of 30-50 mm^3 were selected, randomized and divided into experimental groups. […] Tumor volume was measured weekly, starting at week 5. Additionally, tissue samples of lung, liver, and spleen were taken to assess metastasis.\nAnimals were inoculated with MDA-MB-231-GFP cells as described above, then selected and randomized, and divided into experimental groups of 8 animals each. […] Tumor volume was measured weekly, starting at week 5.\nTumor tissue samples were collected on day 35 post-treatment for immunohistochemical analysis. Paraffin-embedded tissue samples were sectioned, stained with CD31 (Santa Cruz Biotechnology Inc., Santa Cruz, Calif., USA), Ki-67 (DAKO, Carpinteria, Calif., USA), MAPK, FAK, phosphoMAPK or phosphoFAK antibodies, visualized with biotinylated secondary antibodies using a VECTASTAIN® ABC (Vector Laboratories Inc., Burlingame, Calif., USA), and lightly counterstained with haemotoxylin."}, "[2]": {"settings": "immunostaining of tumor tissue, day 35"}},
  "data": [
    {"molecule": "B1", "values": [
      {"measurement": "pro-MMP-2 activation by MMP-14", "setting": "[1]", "value": "completely inhibits"},
      {"measurement": "pro-MMP-9 expression", "setting": "[1]", "value": "No stimulation"},
      {"measurement": "Tumor Mass (±SD)", "setting": "MDA-MB-435 GFP tumors; 0.1 mg/kg Q2d IP, day 61", "value": "1.54 ± 0.91"},
      {"measurement": "Tumor Mass (±SD)", "setting": "MDA-MB-435 GFP tumors; 1 mg/kg Q2d IP, day 61, * p≦0.05 compared to Control", "value": "0.86 ± 0.21*"},
      {"measurement": "Tumor Mass (±SD)", "setting": "MDA-MB-435 GFP tumors; 10 mg/kg (F01 and A2 Q2d IP; taxotere QW×3 i.v.), day 61, * p≦0.05 compared to Control", "value": "0.82 ± 0.35*"},
      {"measurement": "tumor volume", "setting": "MDA-MB-435 GFP tumors; M0038-F01 1 or 10 mg/kg Q2d IP, taxotere 10 mg/kg QW×3 i.v.", "value": "reduction of tumor volume"},
      {"measurement": "lymph node or lung metastases", "setting": "MDA-MB-435 GFP tumors; fluorescent imaging, day 61", "value": "not effective"},
      {"measurement": "tumor growth (tumor volume)", "setting": "PC3 prostate tumors", "value": "reduced in all M0038-F01 treated animals, with the 10 mg/kg dose being most effective, followed by the 1 mg/kg and 0.1 mg/kg doses"},
      {"measurement": "metastases to spleen", "setting": "MDA-MB-231-GFP tumors; M0038-F01 10 mg/kg Q2d IP, DOX 5 mg/kg weekly IP", "value": "reduced in DOX and M0038-F01 treated animals, but the difference was not statistically significant"},
      {"measurement": "lung and liver metastases", "setting": "MDA-MB-231-GFP tumors; M0038-F01 10 mg/kg Q2d IP, DOX 5 mg/kg weekly IP, compared to controls", "value": "statistically significant reduction"},
      {"measurement": "tumor growth (tumor volume), dose-ranging experiment", "setting": "MDA-MB-231-GFP tumors; M0038-F01 0.1, 1 or 10 mg/kg Q2d IP for 5 weeks, A2 10 mg/kg", "value": "reduced in all M0038-F01 treated animals, with the 10 mg/kg dose being most effective, followed by the 1 mg/kg and 0.1 mg/kg doses"},
      {"measurement": "tumor growth (tumor volume)", "setting": "MDA-MB-231-GFP tumors; M0038-F01 or A2 10 mg/kg Q2d IP, DOX 5 mg/kg weekly IP, five weeks", "value": "substantially inhibited"},
      {"measurement": "CD31 and KI67 levels compared to vehicle and A2 controls", "setting": "MDA-MB-231-GFP tumors; [2]", "value": "statistically significant (p<0.05) reductions"},
      {"measurement": "phospho-FAK level", "setting": "MDA-MB-231-GFP tumors; [2]", "value": "4±1.2", "unit": "A.U."},
      {"measurement": "phospho-MAP kinase level", "setting": "MDA-MB-231-GFP tumors; [2]", "value": "2.4±0.7", "unit": "A.U."},
      {"measurement": "total MAP kinase and FAK levels", "setting": "MDA-MB-231-GFP tumors; immunostaining of tumor tissue, day 35, versus control tumors", "value": "essentially the same as in control tumors"},
      {"measurement": "Ki67", "setting": "MDA-MB-231-GFP tumors; immunostaining of tumor tissue, day 35 post-treatment, image analysis", "value": "2.4 ± 1.2"}
    ]}
  ]
}
